For this data set, the target named is T1, TFIIB (UniProt P29055 1-345).
T1 sequence: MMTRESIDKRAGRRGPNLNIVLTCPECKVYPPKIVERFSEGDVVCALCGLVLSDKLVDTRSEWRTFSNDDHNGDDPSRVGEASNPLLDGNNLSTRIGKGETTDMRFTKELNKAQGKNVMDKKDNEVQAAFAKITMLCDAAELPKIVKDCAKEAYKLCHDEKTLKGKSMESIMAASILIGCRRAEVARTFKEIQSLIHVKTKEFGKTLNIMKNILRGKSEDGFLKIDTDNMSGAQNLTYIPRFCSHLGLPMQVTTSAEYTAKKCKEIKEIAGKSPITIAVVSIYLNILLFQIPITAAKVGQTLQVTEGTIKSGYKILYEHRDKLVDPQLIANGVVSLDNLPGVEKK
The data set can be described thus: EMSA. In general terms: In EMSA bound probe runs differently from free probe, usually more slowly.

B1: MiniB4 (structured_RNA)
RNA: GGGAGCUAAUGUAGGAUGCUGGGGUAGUCCAGCCCUAGAAUAAGCGCUAGUACUACAAGCU
Turning to B1, the binding result was “binds”.

B2: B4-Del3 (structured_RNA)
RNA: GGGAGAAUUCAACUGCCAUCUAGGCAAAGAGCUAAUGUAGGAUGCUGGGGUAGUCCAGCCCUAGAAUAAGCGCUAGUACUACAAGCU
In the case of B2, the binding result is “binds”.

B3: B4-Del5 (structured_RNA)
RNA: GGGAGCUAAUGUAGGAUGCUGGGGUAGUCCAGCCCUAGAAUAAGCGCUAGUACUACAAGCUUCUGGAGCUCGGU
Take B3: the binding result is listed as “binds”.

Values taken from PMC2853134.
